Data from US20260226187A1.
pKd: −log10 of the molar value.

Tests used:
FcRn (human) = FcRn (human) (UniProt P55899); test: SPR, antibody immobilised, FcRn analyte, steady state model, pH 6.0
[1] = target: FcγRIIb/c (CD32b/c) (human) (UniProt P31994); test: SPR, His-captured FcγRIIb/c, antibody analyte, steady state model, HBS-EP+
FcγRI (CD64) (human) = FcγRI (CD64) (human) (UniProt P12314); test: SPR, His-captured FcγRI, antibody analyte, 1:1 model, PBST pH 7.4
FcγRIIIb (CD16b) (human) = FcγRIIIb (CD16b) (human) (UniProt O75015); test: SPR, His-captured FcγRIIIb (CD16b), antibody analyte, steady state model, HBS-EP+ (legend of FIG. 32; receptor printed as FcγRIIIa)
Sequence of FcγRIIIb (CD16b) (human) (O75015 17-200 limits assumed): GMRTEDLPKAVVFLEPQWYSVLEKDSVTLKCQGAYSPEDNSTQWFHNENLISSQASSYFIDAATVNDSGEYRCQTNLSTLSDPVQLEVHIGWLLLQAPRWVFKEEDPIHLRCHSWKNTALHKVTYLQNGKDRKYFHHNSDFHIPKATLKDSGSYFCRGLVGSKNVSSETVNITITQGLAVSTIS

[2] = target: FcγRIIIa F158 (CD16a) (human) (UniProt P08637); test: SPR, His-captured FcγRIIIa F158, antibody analyte, steady state model, HBS-EP+ (FIG. 31)
Sequence of FcγRIIIa F158 (CD16a) (human) (P08637 17-208): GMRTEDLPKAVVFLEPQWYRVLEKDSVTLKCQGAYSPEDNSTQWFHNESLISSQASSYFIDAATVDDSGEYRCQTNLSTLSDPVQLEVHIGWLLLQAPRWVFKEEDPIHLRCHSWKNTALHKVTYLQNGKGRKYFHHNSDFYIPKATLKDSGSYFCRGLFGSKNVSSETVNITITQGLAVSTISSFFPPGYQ

[3] = target: Human EpCAM expressed on cells (CHO-hEpCAM, HCT116) (human) (UniProt P16422); test: flow cytometry of CHO-hEpCAM cells stained with PE anti-hEpCAM clone 9C4, quantified with the QuantiBrite PE bead standard curve
Sequence of Human EpCAM expressed on cells (CHO-hEpCAM, HCT116) (human) (P16422 24-314): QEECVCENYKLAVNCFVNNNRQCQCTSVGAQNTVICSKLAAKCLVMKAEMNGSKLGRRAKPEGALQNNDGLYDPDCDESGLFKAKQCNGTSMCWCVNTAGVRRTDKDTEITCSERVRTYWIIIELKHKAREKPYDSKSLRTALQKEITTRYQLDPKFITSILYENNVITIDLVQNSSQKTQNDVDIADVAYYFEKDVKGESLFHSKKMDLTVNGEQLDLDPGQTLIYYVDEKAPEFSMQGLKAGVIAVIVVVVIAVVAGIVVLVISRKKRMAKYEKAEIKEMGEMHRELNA

[4] = target: Human EpCAM expressed on cells (CHO-hEpCAM, HCT116) (human) (UniProt P16422); test: flow cytometry of HCT116 cells stained with PE anti-hEpCAM clone 9C4, quantified with the QuantiBrite PE bead standard curve
[5] = target: Cynomolgus EpCAM expressed on CHO cells (cynomolgus monkey); test: flow cytometry of CHO-cynoEpCAM cells stained with PE anti-hEpCAM clone 9C4, quantified with the QuantiBrite PE bead standard curve
Sequence of Cynomolgus EpCAM expressed on CHO cells (cynomolgus monkey) (Q1WER1 24-314): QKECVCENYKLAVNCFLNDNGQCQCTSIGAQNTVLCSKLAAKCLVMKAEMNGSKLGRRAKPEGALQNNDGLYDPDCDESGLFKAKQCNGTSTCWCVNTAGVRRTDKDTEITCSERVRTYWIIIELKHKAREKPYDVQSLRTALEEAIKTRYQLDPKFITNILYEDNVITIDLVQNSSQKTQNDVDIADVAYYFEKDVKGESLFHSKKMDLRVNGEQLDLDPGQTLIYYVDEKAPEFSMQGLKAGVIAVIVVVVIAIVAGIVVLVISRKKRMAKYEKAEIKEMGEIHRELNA

Sequence of FcγRIIb/c (CD32b/c) (human) (P31994 43-217): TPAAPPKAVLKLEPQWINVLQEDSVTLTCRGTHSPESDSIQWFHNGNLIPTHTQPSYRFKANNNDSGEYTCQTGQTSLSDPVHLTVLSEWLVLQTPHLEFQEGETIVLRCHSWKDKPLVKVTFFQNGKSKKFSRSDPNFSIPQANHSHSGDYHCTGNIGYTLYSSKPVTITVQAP
Sequence of FcγRI (CD64) (human) (P12314 16-292): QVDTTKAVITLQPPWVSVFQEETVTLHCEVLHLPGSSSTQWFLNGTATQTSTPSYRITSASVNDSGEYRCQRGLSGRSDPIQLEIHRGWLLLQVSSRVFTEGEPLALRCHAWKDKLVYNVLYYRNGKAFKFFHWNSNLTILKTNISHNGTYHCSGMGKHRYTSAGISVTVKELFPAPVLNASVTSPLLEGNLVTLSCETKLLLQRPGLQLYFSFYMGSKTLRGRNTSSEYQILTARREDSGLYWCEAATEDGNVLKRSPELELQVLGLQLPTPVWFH

pKd (FcRn (human))	pKd [1]	pKd (FcγRI (CD64) (human))	pKd (FcγRIIIb (CD16b) (human))	pKd [2]	Antibody per cell (Antibody per cell) [3]	Antibody per cell (Antibody per cell) [4]	Antibody per cell (Antibody per cell) [5]	Substance
6.44	5.38	8.93	5.19	6.07	–	–	–	IgG1-ctrl mAb (antibody)
–	–	–	–	–	194000	412000	231000	Mouse anti-hEpCAM conjugated to PE, clone 9C4 (antibody)
